The assay concerns the target Alexa 594 labeled His-tagged protoxin (Clostridium perfringens epsilon protoxin) (Clostridium perfringens, UniProt Q02307 33-328). Put plainly: fluorescent toxin staining, MAL loss-of-function mouse.

B1: mouse MAL (endogenous, in wild-type mouse tissues; absent in MAL KO mice) (receptor)
chain: MAPAAASGGSTLPSGFSVFTTFPDLLFVCEFVFGGLVWILIASSLVPLPLAQGWVMFVSVFCFVATTSLMILYIIGTHGGETSWITLDAAYHCVAALFYLSASVLEALATISMFDGFTYKHYHENIAAVVFAYVVTLIYVVHAVFSLIRWKSS
notes: whole, on cells
For the molecule B1, the binding result is listed as “binds”.

The values above are taken from US20160017022A1 (CORNELL UNIVERSITY, published 2016).
